B1: Forkhead box protein P3 (Mus musculus), Q99JB6 (parent)
chain: MPNPRPAKPMAPSLALGPSPGVLPSWKTAPKGSELLGTRGSGGPFQGRDLRSGAHTSSSLNPLPPSQLQLPTVPLVMVAPSGARLGPSPHLQALLQDRPHFMHQLSTVDAHAQTPVLQVRPLDNPAMISLPPPSAATGVFSLKARPGLPPGINVASLEWVSREPALLCTFPRSGTPRKDSNLLAAPQGSYPLLANGVCKWPGCEKVFEEPEEFLKHCQADHLLDEKGKAQCLLQREVVQSLEQQLELEKEKLGAMQAHLAGKMALAKAPSVASMDKSSCCIVATSTQGSVLPAWSAPREAPDGGLFAVRRHLWGSHGNSSFPEFFHNMDYFKYHNMRPPFTYATLIRWAILEAPERQRTLNEIYHWFTRMFAYFRNHPATWKNAIRHNLSLHKCFVRVESEKGAVWTVDEFEFRKKRSQRPNKCSNPCP

Variants of: B1
Settings: with runx1_mouse Runx1, Q03347
runx1_mouse Runx1, Q03347, sequence (Q03347 whole entry): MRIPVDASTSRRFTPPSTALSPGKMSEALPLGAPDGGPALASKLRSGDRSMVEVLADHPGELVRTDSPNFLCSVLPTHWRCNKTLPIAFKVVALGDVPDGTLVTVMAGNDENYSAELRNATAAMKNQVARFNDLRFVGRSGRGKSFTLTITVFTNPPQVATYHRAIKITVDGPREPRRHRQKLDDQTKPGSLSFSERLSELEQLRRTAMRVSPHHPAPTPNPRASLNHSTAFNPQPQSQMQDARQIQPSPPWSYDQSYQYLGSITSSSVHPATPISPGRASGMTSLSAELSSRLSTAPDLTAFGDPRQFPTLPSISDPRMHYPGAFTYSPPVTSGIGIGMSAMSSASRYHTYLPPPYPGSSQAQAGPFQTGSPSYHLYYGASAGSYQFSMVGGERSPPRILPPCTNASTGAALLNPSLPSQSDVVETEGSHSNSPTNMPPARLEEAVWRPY

Row | Variant | effect of a mutation on the interaction
1 | MPNPRPAKPMAPSLALGPSPGVLPSWKTAPKGSELLGTRGSGGPFQGRDLRSGAHTSSSLNPLPPSQLQLPTVPLVMVAPSGARLGPSPHLQALLQDRPHFMHQLSTVDAHAQTPVLQVRPLDNPAMISLPPPSAATGVFSLKARPGLPPGINVASLEWVSREPALLCTFPRSGTPRKDSNLLAAPQGSYPLLANGVCKWPGCEKVFEEPEEFLKHCQADHLLDEKGKAQCLLQREVVQSLEQQLELEKEKLGAMQAHLAGKMALAKAPSVASMDKSSCCIVATSTQGSVLPAWSAPREAPDGGLFAVRRHLWGSHGNSSFPEFFHNMVHFLYHNMRPPFTYATLIRWAILEAPERQRTLNEIYHWFTRMFAYFRNHPATWKNAIRHNLSLHKCFVRVESEKGAVWTVDEFEFRKKRSQRPNKCSNPCP [D329V;Y330H;K332L] | disrupting interaction strength
2 | MPNPRPAKPMAPSLALGPSPGVLPSWKTAPKGSELLGTRGSGGPFQGRDLRSGAHTSSSLNPLPPSQLQLPTVPLVMVAPSGARLGPSPHLQALLQDRPHFMHQLSTVDAHAQTPVLQVRPLDNPAMISLPPPSAATGVFSLKARPGLPPGINVASLEWVSREPALLCTFPRSGTPRKDSNLLAAPQGSYPLLANGVCKWPGCEKVFEEPEEFLKHCQADHLLDEKGKAQCLLQREVVQSLEQQLELEKEKLGAMQAHLAGKMALAKAPSVASMDKSSCCIVATSTQGSVLPAWSAPREAPDGGLFAVRRHLWGSHGNSSFPEFFHNMVHFKYHNMRPPFTYATLIRWAILEAPERQRTLNEIYHWFTRMFAYFRNHPATWKNAIRHNLSLHKCFVRVESEKGAVWTVDEFEFRKKRSQRPNKCSNPCP [D329V;Y330H] | decreasing interaction strength

Source: IntAct's records for PubMed 17377532
